± gives the standard error. Fewer inactive variants are shown than the library holds.
B1: glmS ribozyme (parent)
chain: AUAAAAGCGCCAGAACUACAGAAAUGUAGUUGACGAGGAGGAGGUUUAUCGAAUUUUCGGCGGAUGCCUCCAAA

What was measured:
Settings in all cases: with glucosamine-6-phosphate
[1] = variants of: B1; assay: self-cleavage kobs at 40 uM GlcN6P; higher = faster cleavage; RNA array
Summary of the method: (§1)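 Glucosamine-6-phosphate, from 40 μM to 10 mM in HEPES/KCl/Mg(OAc)2 buffer, was flowed over sequenced MiSeq chips carrying barcoded ribozyme variants transcribed in situ by E. coli RNA polymerase. A hybridised Cy3 probe tracked the variants at 37 °C as tiles were imaged over ~14 h. kobs, kcat and KM were obtained by fitting normalised per-tile medians to exponential decays and then applying weighted Michaelis–Menten fits across concentrations.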

[2] = variants of: B1; assay: self-cleavage kobs at 160 uM GlcN6P; higher = faster cleavage; RNA array
Summary of the method: as §1

[3] = variants of: B1; assay: self-cleavage kobs at 640 uM GlcN6P; higher = faster cleavage; RNA array
Summary of the method: as §1

[4] = variants of: B1; assay: self-cleavage kobs at 2500 uM GlcN6P; higher = faster cleavage; RNA array
Summary of the method: as §1

[5] = variants of: B1; assay: self-cleavage kobs at 10000 uM GlcN6P; higher = faster cleavage; RNA array
Summary of the method: as §1

Variant | self-cleavage kobs at 40 uM GlcN6P [1] [s⁻¹] | self-cleavage kobs at 160 uM GlcN6P [2] [s⁻¹] | self-cleavage kobs at 640 uM GlcN6P [3] [s⁻¹] | self-cleavage kobs at 2500 uM GlcN6P [4] [s⁻¹] | self-cleavage kobs at 10000 uM GlcN6P [5] [s⁻¹]
G44U C58G | < 1e-05 | < 1e-05 | < 1e-05 | < 1e-05 | < 1e-05
A42C G43C C50U C67U | < 1e-05 |  |  |  | 
U45A U55A | 0.00151 ± 0.00018 |  | 0.00993 ± 0.0023 | 0.00931 ± 0.0037 | 0.09 ± 0.031
U45A U55G | 0.00178 ± 0.00026 | 0.00389 ± 0.0012 | 0.00532 ± 0.0012 | 0.00894 ± 0.0023 | 0.0415 ± 0.013
G44C G59C C61A | < 1e-05 | < 1e-05 | < 1e-05 | < 1e-05 | < 1e-05
G44A U46C A53U C61U | < 1e-05 |  |  |  | 
G41A U45C C70U | 9.09e-05 ± 2e-05 |  |  | 0.00174 ± 0.00052 | 0.00358 ± 0.00079
G44C U45A C71U | < 1e-05 |  |  |  | 
A42U U69G | 0.000489 ± 5.4e-05 | 0.000822 ± 0.00011 | 0.00192 ± 0.00026 | 0.00369 ± 0.00061 | 0.00738 ± 0.0015
U46A G51U | < 1e-05 | < 1e-05 | < 1e-05 | < 1e-05 | < 1e-05
G41A C58A | < 1e-05 |  | < 1e-05 |  | 
A42C C71G | < 1e-05 | < 1e-05 | < 1e-05 | < 1e-05 | < 1e-05
G44A G59C C71U | < 1e-05 |  |  |  | < 1e-05
G43A G62C | < 1e-05 |  |  | < 1e-05 | < 1e-05
G43A G62A | < 1e-05 | < 1e-05 |  | < 1e-05 | < 1e-05
G41U C50G | < 1e-05 |  | < 1e-05 |  | < 1e-05
G41U G62C C70U | < 1e-05 |  | < 1e-05 |  | < 1e-05
U46A U57A | < 1e-05 | < 1e-05 |  |  | 
A42G G62U C68U | < 1e-05 |  |  |  | 
G40U G41U U47G G62U G63U | < 1e-05 |  |  |  | < 1e-05
A42C A48C | < 1e-05 |  | < 1e-05 | < 1e-05 | < 1e-05
G43U A48G C70G | < 1e-05 |  |  |  | < 1e-05
G43A G51U | < 1e-05 | < 1e-05 |  | < 1e-05 | 

Variant | self-cleavage kobs at 40 uM GlcN6P [1] [s⁻¹] | self-cleavage kobs at 160 uM GlcN6P [2] [s⁻¹] | self-cleavage kobs at 640 uM GlcN6P [3] [s⁻¹] | self-cleavage kobs at 2500 uM GlcN6P [4] [s⁻¹] | self-cleavage kobs at 10000 uM GlcN6P [5] [s⁻¹]
U45C C58G | < 1e-05 | < 1e-05 | < 1e-05 |  | 
U45C C58U | < 1e-05 | < 1e-05 | < 1e-05 | < 1e-05 | 
A42U A52U A64U G66U | < 1e-05 |  |  |  | 
G43C U47G | < 1e-05 |  | < 1e-05 |  | < 1e-05
G41C U57A | < 1e-05 | < 1e-05 |  | < 1e-05 | < 1e-05
G41A C50U G59A | < 1e-05 |  |  |  | < 1e-05
G44A G59A | < 1e-05 | < 1e-05 | < 1e-05 |  | < 1e-05
U46A U49G | < 1e-05 |  |  |  | 2.85e-05 ± 1.2e-05
U45C U54G | 3.96e-05 ± 1.3e-05 | 0.000199 ± 3.9e-05 | 0.00067 ± 0.00015 | 0.000454 ± 0.00018 | 0.00305 ± 0.00064
G43U G62U | < 1e-05 |  |  | < 1e-05 | < 1e-05
G41A G59C C68A | < 1e-05 |  |  | < 1e-05 | < 1e-05
U45A G62U | < 1e-05 | < 1e-05 | < 1e-05 | < 1e-05 | 
G44A U56C C61U | < 1e-05 |  | < 1e-05 | < 1e-05 | < 1e-05
A42G G59A | < 1e-05 |  |  | 4.78e-05 ± 2e-05 | 
U46C C50A C58U G62C | < 1e-05 |  |  |  | 
G41U G51U A53G | < 1e-05 |  |  |  | < 1e-05
G44U G66U | < 1e-05 | < 1e-05 | < 1e-05 | < 1e-05 | < 1e-05
A42U C58G | < 1e-05 | < 1e-05 | < 1e-05 | < 1e-05 | 
G41A C50G C61U | < 1e-05 | < 1e-05 | < 1e-05 | < 1e-05 | < 1e-05
G41A U46C | < 1e-05 |  |  |  | 4.37e-05 ± 1.2e-05
G40U G41U U46A U47C G51U | < 1e-05 |  |  |  | 
G44A U45C A48U | < 1e-05 |  |  |  | 

— the supplement of paper PMC7125110
